Test results reported in paper PMC10368004.

How the values were obtained:
Test in all cases: FM-AFM imaging
Conditions in all cases: remark: other sources report otherwise
annexin A5, P08758 [1] = target: T1, annexin A5, P08758
T1 chain: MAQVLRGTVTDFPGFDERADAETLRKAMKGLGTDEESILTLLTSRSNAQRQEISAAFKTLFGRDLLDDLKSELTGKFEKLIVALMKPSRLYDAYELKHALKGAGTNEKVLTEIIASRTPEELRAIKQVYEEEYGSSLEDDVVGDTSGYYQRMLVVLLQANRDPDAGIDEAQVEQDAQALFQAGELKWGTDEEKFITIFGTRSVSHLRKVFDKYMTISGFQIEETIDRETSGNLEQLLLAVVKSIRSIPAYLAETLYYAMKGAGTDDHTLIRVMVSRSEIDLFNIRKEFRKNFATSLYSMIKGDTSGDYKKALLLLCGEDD

annexin A5, P08758 [2] = target: T1, annexin A5, P08758
annexin A5, P08758 [3] = target: T1, annexin A5, P08758

B1: annexin A5, P08758 1-320 (natural protein)
chain: T1 chain
Annexin A5, P08758 [1]
  percentage of unoccupied hollow sites (vacancies, sites without an H-trimer): 73.6%
  stoichiometry N: 3
Annexin A5, P08758 [2]
  percentage of unoccupied hollow sites (vacancies, sites without an H-trimer): 56.1%
Annexin A5, P08758 [3]
  percentage of unoccupied hollow sites (vacancies, sites without an H-trimer): 65.9%
